Experiment: yeast display, Sf9 membrane polyspecificity reagent, FACS + sequencing; frameworks hold sequencing errors
Summary of the method: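 A nanobody's polyreactivity label depends on the gate it was sorted from. Yeast display cells were stained with 10% biotinylated, detergent-solubilized Sf9 membrane reagent for 1 hour at 4 °C, enriched on streptavidin microbeads and sorted by FACS. The low and high (top ~1%) gates were set on anti-HA fluorescence for expression and streptavidin fluorescence for reagent binding.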

| Sequence | polyreactivity (PSR sort gate) |
| --- | --- |
| QVQLVESGGGLVQAGGSLRLSCAASGSTFTSNAMGWYRQAPGKERELVAAISFSDASTYYADSVKGRFTISRDNAKNTVYLQMNSLKPEDTAVYYCAADSDQDAYDYWGQGTQVTVSS | low polyreactivity |
| QVQLVESGGGLVQAGGSLRLSCAASGLTFGYYAMGWYRQAPGKEREFVASITWSGGTTYYADSVKGRFTISRDNAKNTVYLQMNSLKPEDTAVYYCAAQRSYAYEYWGQGTQVTVSS | high polyreactivity |
| QVQLVESGGGLVQAGGSLRLSCAASGSTFPFYAMGWYRQAPGTERELVAAITSGGSTYADSVKGRFTISRDNAKNTVYLQMNSLKPEDTAVYYCAASWPRWWRFGYWGQGTQVTVSS | low polyreactivity |
| QVQLVESGGGLVQAGGSLRLSCAASGSIFYINDMGWYRQAPGKERELVAAISWSGGTTYYADSVKVRFTISRDNAKNTVYLQMNSLKPEDTAVYYCATDYFFLFPWGLSDYWGQGTQVTVSS | low polyreactivity |
| QVQLVESGGGLVLAGGSLRLSCPASGSIFGGYAMGWYRQAHGKERELVAAISYRGASTYYADSVKGRFTISRDNAKNTVYLQMNSLKPEDTAVYYCAVAARTRARVLYGYDYWGQGTQVTVSS | low polyreactivity |
| QVQLVESGGGLVQAGGSLRLSCAASGITFKRYAMGWYRQAPGKEREMVAAITGIGGSTYYADSVKGRFTISRDNAMNTVYLQMNSLKPEDTAVYYCAARNNKKYDYWGQGTQVTVSS | high polyreactivity |
| QVQLVESGGGLVQAGGSLRLSCAASGLTFDVYTMGWYRQAPGKETEFVAAITWDGGITYYADSVKGRFTISRDNAKNSVYLQMNSLKPEDTAVYYCAADYALGEVYWYNYWGLGTQVTVSS | low polyreactivity |
| QVQLVESAGGLVQAGGSLRLSCAASGFTFYFYAMGWSRQAPGKERELVAAISRSGSRTYYADSVKGRFTISRDNAKNTVYLQMNSLKPEDTAVYYCARVRPRGLYFVLHYDYWGQGTQVTVSS | high polyreactivity |
| QVQLVESGGGLVQAGGSLRLSCAASGIYAYVMGWYRQAPGTERELVAAISGTGGRTYYADSVKGRFTISRDNAKNTVYLQMNSLKPEDTAVYYCAARVKYTRYQSILDYYYWGQGTQVTVSS | high polyreactivity |
| QVQLVESGGGLVQAGGSLRLSCAASGFIFYRNALGWYRQAPGKERELVAVIRWSGTSTSYADSVKGRFTISRDNAKNTVYLQMNSLKPEDTAVYYCNAAWYDLYGDSDGDDYWGQGTQVTVSS | low polyreactivity |
| PVQLVESGGGLGQAGGSLRLSCAASGIIFNDYAMGWYRQAPGKERELVASIRSNTGSTNYADSVKGRFTISRDYAKNTVYLPMNSLKPEETAVSDCAADYLPDYGPRGGYWGQGTQVTVSS | low polyreactivity |
| QVQLVETGGCLVQAGGSLPLSCAASGRTFRPYAKGLYRPAPGKERELVAAITRGGSTKYADSVKGRFTISRDNAKNTVYLQMNSLKPEDTAVYYCAPDYSVYHRLFDYWGQGTQVTVSS | high polyreactivity |
| QVQLVESGGGLVQAGGSLRVSCAASGSTFRRNNMGWYRQAPGKERELVAGISSSGGSTYYADSVKGRFTISRDNAKNTVYLQMNSLKPEDTAVYYCDARFYVSYVGYNYWGQGTQVTVSS | high polyreactivity |
| QVQLVESGGALVQAGGSLRLSSAASGSTFYLNAMGWYRQAPGKERELVAAITVSGGSTYYADSVKGRFTISRDNAKNTVYLQMNSLKPEDTAVYYCARELLSPTYQRWYYYWGQGTQVTVSS | low polyreactivity |
| QVQLVESGGGLVQAGGSLRLSCAASGSTFANYAMGWYRQAPGKERELVAGISWRGGRTYYADSVKGRFTISRDNAKNTVYLQMNSLKPEDTAVYYCAVVHQTFTGDYWGQGTQVTVSS | high polyreactivity |
| QVQLVESGGGLVQAGGSLRLSCAASGRTFGYNAMGWYRQAPGKERELVAAITWSGGSTYYADSVKGRFTISRDNAKNTVYLQMNSLKPEDTAVYYCNAYQRLSRAYGYWGQGTQVTVSS | high polyreactivity |
| QVQLVESRGGLVQAGGSLRLSCAASGITSPYAMGWYRQAPGKERELVAAISWSGSSTYYADSVKGRFTISRDNAKNTVYLQMNSLKPQDTAVYYCNTVGTRQPMDYWGQGTQVTVSS | high polyreactivity |
| QVQLVESGGGLVQAGGSLRLSCAASGSTIPRNALGWYRQATGKERELVPAISSGGSTYYADSVKWRFTISRDNAKNTVYLQMNRLKPEDTAVYYCAARLYWPIIVVDLYGYDYWGQGTQVTVSS | low polyreactivity |
| QVQLQESGGGLVHAGGSLRLSCPASGTISFINMMGWYRQAPGRERELVASINFGANTNYADSVKGRFTISRDNAKNTVYLQLKSLKPEDTAVYYCAVYCAWTIGFTYWGQGTQVTVRS | high polyreactivity |
| QVQLVETGGGLVQAGGSLRLSCAASGIIFDGNTMGWYRQAPGKERELVAGIDFSDDSTNYADSVKGRFTISRDNAKNTVYLQMNSLKPEDTAVYYCAADTRSPSAHEVDYWGQGTQVTVSS | low polyreactivity |
| QVQLVESGGGLVQAGGSLRLSCAASGRIFYSYAMGWYRQAPGKERELVATITRRGSSTYYADSVKGRFTISRDNAKNTVYLQMNSLKPEDTAVYYCNAVGVRRAIGYPSQTEYGYWGQGTQVTVSS | high polyreactivity |
| QVQLVESGGGLVQAGGSLRLSCAASGRIFYPYAMGWYRQAPGKEREVVAGITSSDDTTYYADSVKGRFTISRDNAKNTVYLQMNSLKPEDTAVYYCNTSVDRGLGYWGQGTQVTVSS | low polyreactivity |

| Sequence | polyreactivity (PSR sort gate) |
| --- | --- |
| QVQLVESGGGLVQAGVSLRLICAASGLTFQYNAMGWYRQAPGKEREMVASINSGGSTDYADSVKGRFTISRDNAKNTVYLQMNSLKPEDTAVYYCATSGYWYSASYGYEYWGQGTQVTVSS | low polyreactivity |
| QVQLVESGGGLVQAGGSLRITCAASGSNFTYNAMGRYREAPGKERELVAAIDWDGDTTYYADSVKGRFTISRDNAKNTVYLQMNSLKPEDTAVYYCAAEFYSLGKAIYEYWGQGTQVTLSS | high polyreactivity |
| QVQLVESGGGLVQEGGSLRLSCAASGRISYIYAMGWYRQAQGKERELVAAITRGGSTNYADSVKGCFTISRDNAKNTVYLQMNSLKPEDTAVYYCAARRRRSGGYEYDYWGQGTQVTVSS | high polyreactivity |
| QVQLVESGGGLVQAGGSLRLSCAASGITFGVNTMGWYRQAPGKERELVAAITWRGGSTYYADSVKGRFTISRDNAKNTVYLQMNSLKPEDTAVYYCAAPYDGPVLTVGYDYWGQGTQVTVSS | low polyreactivity |
| HVQLVESGGGLVQAGGSLRLSCAASGYILDRNAMGWYRQAPGKESELVAVISWGGTRTYYADSVKGRFTISRDNAKNTVYLQMNSLKPEVTAVYYCARYPYYYGYAGRYDYWGQGTQVTVSS | high polyreactivity |
| QVQLVESGGGLVQAGGSLRLSCAASGSIFTYYAMGWYRQAPGKEMELVAAISWSGGSTYYADSVKGRFTISRDNAKNTVYLQLNSLKPEDTAVYYCAKRYRKGRAYPGYEYWGQGTQVTVSS | low polyreactivity |
| QVQLVESGGGLVQAGGSLRLSCAASGRIFVAYTRGWYRQAPGKERELVAAITWNSGSSTYYADSVKGRFTISGDNAKNTVYLQMNSLKPEDTAVYYCAARSAGRYWNYYWGQGTQVTVSS | high polyreactivity |
| QFQLVESGGGLVQAGGSLRLSCAASGRTFYYYVMGWYRQAPGKERELVAAITIRGGSTYYADSVKGRFTISRDNAKNTVYLQMNSLKPEDTAVYYCNARGGSSTYGNYYWGQGTQVTVSS | low polyreactivity |
| QVQLVESGGGLVQAGGSLRLSCAASGRIFSGYVMGWYRQAPGKERELVAAISRSGGSTYYADSVKGRFTISRDNAKNTVYLQMNSLKPEDTAVYYCNAYYRYFRSIYDSWGQGTQVTVSS | high polyreactivity |
| QVQLVESGGGLVQAGGSLRLSCAASGRIFGKNAMGWYRQAPGKERELVAAISANGGSTSYADSVKGRFTISRDNAKNTVYLQMNSLKPEDTAVYYCNVRRQLRGDYWGHGTQVTVSS | high polyreactivity |
| QVQLVESGGGLVQAGGSLRLSCAASGRIFAGYAMGWYRKAPGKERELVASIRSSGSTYYADSVKGRFTISRDNAKNTVYLQMNSLKPEDTAVYYCAARSGYFRSRFDYWGQGTQVTVSS | high polyreactivity |
| QVQLVESGGGLVQAGGSLRLSCAASGRTFYYNTMGWYRQAPGKERELVASITSGSSTYYADSVKGRFTISRDNAKNTVYLQMNSLKPEDTAVYYCAVYRRYSVKYHYGYWGQGTQVTVSS | high polyreactivity |
| QVQLVESGGGLVQAGGSLRLSCAASGSIFLLNAMGWYRQAPGKERELVARIRINGGSTYYADSVKGRFTISRDNAKNTVYLKMNSLKPEDTAVYYCAADDTGPYSNWYDYWGQGTQVTVSS | low polyreactivity |
| QVQLVESGGGLVQAGGSLRLSCAASGRTFIKYAMGWYRPAPGKERALVAAISRNGGSTNYADSVKGRFTISRDNAKNTVDLQMNSLKPEDTAVYYCAAVGTVSSTVGYNYWGQGTQVTVSS | high polyreactivity |
| QVQLVESGGGLVQAGGSLRLTCAASGFISSENAMGWYRQAPGKERELVAAISSGGCTNYADSVKGRFTISRDNAKNTVYLQMNSLKEEDTAVYYCAATLPGWYNEDDSWGQGTHVTVSS | low polyreactivity |
| QVQLVESGGGLVQAGGSLRLSCAASGSIFRVNTLGWYRQAPGKERELVATISSGARTNYADSVKGRFTISRDNAKNTVDLQLNSLKPEDTAVYYCAADRSWGYWGRSRYDYWGQGTQVTVSS | high polyreactivity |
| QVQLVESGGGLVQAGGSLRLSCAASGFTFGGYAMGWYRQAPGKERELVAAISRSGGSTYYADSVKGRFIISRDNAKNTVYLQMNSLKPEDTAVYYCAAKTVSRARLYDYWGQGTQVTVSS | high polyreactivity |
| QVQLVESGGGLVQAGGSLRLICAASGFIFWDNAMGWYRQAPGKERELVAAISKSGTRTYYADSVKGRFTISRDNEKNTVYLQMNSLKPEDTAVYYCAAEGSGYEYYYWGQGTQVTVSS | high polyreactivity |
| QVQLVESGGGLVQAGGTLRFSCAASGSILEYYTMGWDRQAPGKERELVAAISASGGNTYYADSVKGRFTISRANAKNTVYFQMNSLKPEDTAVYYCNAYYGPRGYGYWGQGTQVTVSS | high polyreactivity |
| QVQLVESGGGLVQAGGTLRLSCAASGRILPRNAMGWSRQAPGKERELVAGISSDGSTNYADSVKGRFTISRDNAKNSVYLQMNILKPEDTAVYYCAADGVYDPYVYGYWGQGTQVTVSS | low polyreactivity |
| QVQLVESGGGLVQAGGSLRLSCAASGGIFRYAMGWYRQAPGKEREFVAAITTRGGSTYYADSVKGRFTISRDNAKNTVYLQMNSLKPEDTAVYYCAARPYSGRNKYDYWGQGTQVTVSS | high polyreactivity |
